One may read the Kd as the free concentration of one partner at which half of the binding sites on the other are occupied at equilibrium, for simple one-to-one binding.

The assay deals with T1, SNX5 PX domain (UniProt Q9Y5X3 25-172).
T1 chain: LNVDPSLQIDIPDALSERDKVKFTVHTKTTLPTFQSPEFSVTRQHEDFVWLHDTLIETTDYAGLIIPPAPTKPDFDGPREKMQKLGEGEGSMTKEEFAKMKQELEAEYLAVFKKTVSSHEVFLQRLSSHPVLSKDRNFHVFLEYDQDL
The assay is described as follows: ITC.

B1: NRP1 peptide (residues 894 to 918 of the cytosolic tail) (peptide)
peptide: not shown
B1 had a Kd of 17.6 µM.

These data come from publication PMC9231623 (2022).
